The record followed here is the supplement of paper PMC6379048.

What all share (test): EC50 of free RNA motif oligo competing protein binding to immobilised probe
In one data set the target is AGO1 (UniProt Q9UL18). In a few lines:
(§1)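 Free RNA oligos (0 nM to 30 μM) competed for 1 h at 4°C in HEK293-FT lysate (2.5 mg protein/well) before a 30 min, 4°C pulldown with the same oligos on NHS-Sepharose beads. Bound proteins were quantified by label-free LC-MS/MS and normalised to the control. Kd was found by multiplying EC50, from a four-parameter log-logistic fit, by a protein-dependent depletion factor.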

The target in another data set is T1, ERI3 (UniProt O43414).
T1 sequence: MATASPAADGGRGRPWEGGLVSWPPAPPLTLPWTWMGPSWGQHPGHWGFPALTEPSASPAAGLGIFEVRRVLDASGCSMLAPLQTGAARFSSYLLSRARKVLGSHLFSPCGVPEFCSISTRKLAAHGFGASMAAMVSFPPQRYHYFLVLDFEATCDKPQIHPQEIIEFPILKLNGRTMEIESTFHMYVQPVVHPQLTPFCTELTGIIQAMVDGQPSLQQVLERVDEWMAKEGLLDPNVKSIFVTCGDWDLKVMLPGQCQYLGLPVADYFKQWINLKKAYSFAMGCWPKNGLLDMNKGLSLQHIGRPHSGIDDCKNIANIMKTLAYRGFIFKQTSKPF
In a few lines:
as §1

The target of the next data set is T2, MCM4 (UniProt P33991).
T2 sequence: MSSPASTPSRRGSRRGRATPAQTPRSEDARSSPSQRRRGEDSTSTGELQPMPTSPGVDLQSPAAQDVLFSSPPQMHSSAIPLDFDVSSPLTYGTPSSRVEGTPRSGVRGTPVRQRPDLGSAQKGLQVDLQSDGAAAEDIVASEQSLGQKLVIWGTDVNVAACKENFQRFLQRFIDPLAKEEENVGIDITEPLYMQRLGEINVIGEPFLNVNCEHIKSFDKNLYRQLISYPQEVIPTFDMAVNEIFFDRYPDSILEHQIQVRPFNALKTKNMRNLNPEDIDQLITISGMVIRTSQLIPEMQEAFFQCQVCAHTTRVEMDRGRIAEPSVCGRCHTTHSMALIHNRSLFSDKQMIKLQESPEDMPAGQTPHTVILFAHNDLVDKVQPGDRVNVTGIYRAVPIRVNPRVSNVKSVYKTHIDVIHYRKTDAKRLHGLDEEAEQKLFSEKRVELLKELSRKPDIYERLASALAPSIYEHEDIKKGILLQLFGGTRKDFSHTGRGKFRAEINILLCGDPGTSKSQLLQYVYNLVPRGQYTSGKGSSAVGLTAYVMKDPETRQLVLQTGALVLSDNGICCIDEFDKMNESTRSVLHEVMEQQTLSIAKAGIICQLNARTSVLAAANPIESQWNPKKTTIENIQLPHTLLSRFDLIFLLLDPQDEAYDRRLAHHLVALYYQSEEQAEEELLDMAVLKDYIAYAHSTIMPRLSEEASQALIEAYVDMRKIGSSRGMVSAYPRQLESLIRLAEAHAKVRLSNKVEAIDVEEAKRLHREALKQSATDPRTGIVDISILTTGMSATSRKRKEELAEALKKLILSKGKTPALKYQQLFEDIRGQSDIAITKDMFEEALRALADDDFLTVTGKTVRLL
Put shortly:
as §1

The next data set concerns the target T3, GPALPP1 (UniProt Q8IXQ4).
T3 sequence: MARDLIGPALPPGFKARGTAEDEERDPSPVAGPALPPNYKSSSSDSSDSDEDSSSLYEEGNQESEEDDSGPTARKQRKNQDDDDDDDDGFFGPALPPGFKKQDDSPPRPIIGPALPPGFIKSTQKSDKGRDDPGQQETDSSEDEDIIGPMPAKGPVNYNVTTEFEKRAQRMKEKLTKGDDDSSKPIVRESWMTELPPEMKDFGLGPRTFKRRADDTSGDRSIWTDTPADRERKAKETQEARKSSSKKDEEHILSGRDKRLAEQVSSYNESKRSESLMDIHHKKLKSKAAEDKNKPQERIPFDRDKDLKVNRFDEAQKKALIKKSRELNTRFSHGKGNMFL
In a few lines:
as §1

For a further data set, the target named is MRPL19 (UniProt P49406). Put shortly:
as §1

For another data set, the target named is MRPL43 (UniProt Q8N983). Put shortly: as §1
The target in the next data set is MRPL17 (UniProt Q9NRX2). In a few lines:
as §1

The target of the next data set is RPS25 (UniProt P62851). In a few lines: as §1
Another data set has as its target MRPL53 (UniProt Q96EL3). In a few lines:
as §1

The target in a further data set is RPSA (UniProt P08865). In a few lines: as §1
The target of a further data set is MRPL12 (UniProt P52815). Put shortly:
as §1

The next data set has as its target MRPS34 (UniProt P82930). Put shortly: as §1
Another data set addresses T4, LSM8 (UniProt O95777).
T4 sequence: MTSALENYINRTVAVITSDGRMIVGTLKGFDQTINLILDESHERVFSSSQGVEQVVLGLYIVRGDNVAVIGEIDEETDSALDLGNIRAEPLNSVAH
In a few lines: as §1

For a further data set, the target named is MRPS18B (UniProt Q9Y676). Put shortly: as §1

In the case of AAUAAA, the EC50 (commonly the midpoint of the concentration-response curve) in the data set with AGO1 turned out to be 379 nM; with ERI3, 1970 nM; in the data set with MCM4, 50 nM; with GPALPP1, 33.8 nM.
Regarding CUGUCCU, the EC50 was 136 nM with MRPL19; 104 nM with MRPL43; 51.9 nM with MRPL17; 72.5 nM with RPS25; 103 nM with MRPL53; 491 nM with RPSA. In the data set with MRPL12, this sequence had an EC50 of 115 nM.
For the sequence UAUUUAU, the EC50 with MRPS34 was found to be 59.7 nM; with LSM8, 9580 nM; with MRPS18B, 51.4 nM.
